Earlier results in paper PMC3317066.

What was measured:
[1] = molecular target: falcipain-2 (Plasmodium falciparum) (UniProt Q8I6U4)
[2] = molecular target: falcipain-3 (Plasmodium falciparum) (UniProt Q8IIL0)
[3] = molecular target: hemoglobin (Homo sapiens) (UniProt P69905)
[4] = molecular target: methemoglobin (Homo sapiens) (UniProt P69905)

Sequence of UniProt Q8IIL0 (Q8IIL0 243-492): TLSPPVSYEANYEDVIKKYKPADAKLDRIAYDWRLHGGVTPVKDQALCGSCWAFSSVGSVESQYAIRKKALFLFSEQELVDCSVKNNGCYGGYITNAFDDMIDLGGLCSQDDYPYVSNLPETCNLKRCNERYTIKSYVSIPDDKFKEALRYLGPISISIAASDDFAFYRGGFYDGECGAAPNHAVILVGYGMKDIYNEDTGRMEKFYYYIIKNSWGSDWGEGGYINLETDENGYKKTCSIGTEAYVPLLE

In the case of cystatin (from UniProt P01038), the Ki [1] is given as 6.5 nM and the Ki [2] is given as 100 nM.
In the case of falcipain-2 (from UniProt Q8I6U4), the Kd [3] is given as 3.3 µM and the Kd [4] is given as 800 nM.
